This is an account of results in patent US20260348977 (published 2026).

As a reminder, the IC50 is the concentration needed to halve the response being measured. Higher therefore signals weaker potency.

The target in one test is T1, elongated peptide (human).
T1 chain: WSLNPDTGLWE
Nature of the test: competition (chemiluminescence ELISA). For orientation: An ELISA detects its analyte on a solid surface through an enzyme-linked reagent.

Test [1] deals with T2, standard/selection peptide SLNPDTGLWE (CILP-M) (human).
T2 chain: SLNPDTGLWE
Nature of the test: competition (chemiluminescence ELISA, 20C, pH 7.4).

In a further test the target is T3, truncated peptide (human).
T3 chain: LNPDTGLWE
Description: competition (chemiluminescence ELISA).

In the next test the target is T4, non-sense peptide.
T4 chain: DSGPEYADVV
Nature of the test: competition (chemiluminescence ELISA).

B1: NB326 #76 13B5-1C6-2C4 (antibody, V domains shown)
VH: QVQLQQSGPELVKPGASVRISCKASGYTFTNYYIHWVKQRPGQGLEWIGWISPGIVDTEYNEKFKNKATLTADKSSRTAYMQLSSLTSEDSAVYFCARRSAGSYGDFDYWGQGTTLTVSS
VL: DIVMTQSQKFMSTSVGDRVSVTCKASQNVGTDVVWYQQRPGQSPKALMYSASYRYSGVPDRFTGSGSGTDFTLTISNVQSEDLAEYFCQHYDNYPLTFGAGTKLELK
Take B1: the binding result with elongated peptide, with truncated peptide and in the test with non-sense peptide was “no binding” in each case. In test [1], this molecule yielded an IC50 of 2 ng/mL.
